Numbering of substitutions follows the chain as printed. Names and notes keep the numbering of the source. Values joined by “and” are separate entries in the source; they are usually repeats but may differ in a detail not shown here. Equal values may be shown once.
B1: full-length human TMED9 (transmembrane emp24 domain 9), FLAG-tagged (receptor, UniProt Q9BVK6 38-235, looked up)
chain: LYFHIGETEKKCFIEEIPDETMVIGNYRTQLYDKQREEYQPATPGLGMFVEVKDPEDKVILARQYGSEGRFTFTSHTPGEHQICLHSNSTKFSLFAGGMLRVHLDIQVGEHANDYAEIAAKDKLSELQLRVRQLVEQVEQIQKEQNYQRWREERFRQTSESTNQRVLWWSILQTLILVAIGVWQMRHLKSFFEAKKLV
notes: TMED9 (transmembrane emp24 domain 9), human, full length; Seen as octamer, dodecamer and higher-order oligomers; the rows are of the chain with itself; TMED9 has a signal peptide; No cleavage of the tag is described; also called WT TMED9; recombinant TMED9; source: Expi293F, transiently transfected, purified in LMNG+CHS (anti-FLAG resin, Superose 6 gel filtration); not shown: FLAG, N-terminal, …
B2: TMED9 Q177A (receptor, human, UniProt Q9BVK6 38-235, looked up)
chain: B1 chain with Q140A
notes: TMED9, human, mutant of the full-length protein; also called CC interface mutation Q177A
B3: TMED9 R191E (receptor, human, UniProt Q9BVK6 38-235, looked up)
chain: B1 chain with R154E
notes: TMED9, human, mutant of the full-length protein; also called CC interface mutation R191E
B4: TMED9 W205A (receptor, human, UniProt Q9BVK6 38-235, looked up)
chain: B1 chain with W168A
notes: TMED9, human, mutant of the full-length protein; also called CC interface mutation W205A
B5: TMED9 E190R (receptor, human, UniProt Q9BVK6 38-235, looked up)
chain: B1 chain with E153R
notes: TMED9, human, mutant of the full-length protein; also called CC domain mutation E190R
B6: TMED9 R223E (for gel filtration and mass photometry) (receptor, human, UniProt Q9BVK6 38-235, looked up)
chain: B1 chain with R186E
notes: TMED9, human, mutant of the full-length protein

Experiments:
[1] = molecular target: the molecule itself; experiment: SEC; gel filtration of overexpressed protein in octyl-β-glucoside, a harsher detergent
[2] = molecular target: the molecule itself; experiment: mass photometry; Refeyn TwoMP; samples in 0.003% LMNG, 0.0003% CHS diluted from 7 μM into 25 mM Hepes pH 7.4, 150 mM KCl, 1 mM DTT, measured within 10 s
[3] = molecular target: the molecule itself; experiment: cryo-EM structure; purified TMED9 at 1.7 mg/ml in 20 mM tris pH 8.0, 150 mM NaCl, 0.02% LMNG+CHS; octamer refined with C2 symmetry, dodecamer with no symmetry
[4] = molecular target: the molecule itself; experiment: SEC; Superose 6 gel filtration of TMED9 purified on anti-FLAG resin in LMNG+CHS (20 mM tris pH 8.0, 150 mM NaCl); solubilization by digitonin or glyco-diosgenin gave a similar size distribution

Protein	binding result [4]	binding result [2]	further results
B1	–	–	stoichiometry N [1]: 2; stoichiometry N [2]: ≥ 8; stoichiometry N [3]: 8 and 12
B2	binds	–	–
B3	binds	–	–
B4	binds	–	–
B5	–	binds	–
B6	–	binds	–
